One molecule from PMC5821868, “Human Semaphorin-4A drives Th2 responses by binding to receptor ILT-4” (Nature Communications, 2018) can be followed below.

For this test, the target named is T1, recombinant SEMA4A-Fc (Sino Bio. Inc) (human, UniProt Q9H3S1 33-683).
T1 construct: Semaphorin-4A (SEMA4A), human; Used only in the SPR experiment, coated on the CM5 chip; Probably the extracellular domain (surmise); no catalogue number is printed; also called hSEMA4A; source: bought: Sino Bio; Inc
T1 sequence (looked up): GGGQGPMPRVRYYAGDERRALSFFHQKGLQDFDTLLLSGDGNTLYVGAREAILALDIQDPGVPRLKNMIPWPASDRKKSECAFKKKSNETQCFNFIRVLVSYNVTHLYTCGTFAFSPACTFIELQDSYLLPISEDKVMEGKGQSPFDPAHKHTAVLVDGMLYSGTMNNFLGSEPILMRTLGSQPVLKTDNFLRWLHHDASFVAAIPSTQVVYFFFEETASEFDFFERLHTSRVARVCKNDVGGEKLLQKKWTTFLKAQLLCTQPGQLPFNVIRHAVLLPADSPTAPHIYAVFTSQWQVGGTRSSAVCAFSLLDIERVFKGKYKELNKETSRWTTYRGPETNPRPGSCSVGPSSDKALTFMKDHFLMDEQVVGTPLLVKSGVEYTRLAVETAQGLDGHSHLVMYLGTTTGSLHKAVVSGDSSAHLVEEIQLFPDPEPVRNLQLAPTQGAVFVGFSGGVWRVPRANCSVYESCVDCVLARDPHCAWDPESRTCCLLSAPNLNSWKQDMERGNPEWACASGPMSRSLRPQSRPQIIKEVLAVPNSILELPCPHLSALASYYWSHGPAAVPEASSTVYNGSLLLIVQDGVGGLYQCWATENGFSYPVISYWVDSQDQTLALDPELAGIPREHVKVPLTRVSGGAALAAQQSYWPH
Nature of the test: SPR; SEMA4A-Fc (Sino Bio. Inc, 25 ug/ml) coated on a series S CM5 chip; ILT-4-Fc flowed at 10 to 0.625 uM in twofold dilutions; 25 °C; BIAcore T100. The note with it: both partners purified. In general terms: SPR reads the build-up and loss of mass on a sensor chip optically.

B1: recombinant ILT-4-Fc fusion protein (R&D Systems) (Fc fusion, human, UniProt Q8N423 22-460, looked up)
chain: QTGTIPKPTLWAEPDSVITQGSPVTLSCQGSLEAQEYRLYREKKSASWITRIRPELVKNGQFHIPSITWEHTGRYGCQYYSRARWSELSDPLVLVMTGAYPKPTLSAQPSPVVTSGGRVTLQCESQVAFGGFILCKEGEDEHPQCLNSQPHARGSSRAIFSVGPVSPNRRWSHRCYGYDLNSPYVWSSPSDLLELLVPGVSKKPSLSVQPGPVMAPGESLTLQCVSDVGYDRFVLYKEGERDLRQLPGRQPQAGLSQANFTLGPVSRSYGGQYRCYGAHNLSSECSAPSDPLDILITGQIRGTPFISVQPGPTVASGENVTLLCQSWRQFHTFLLTKAGAADAPLRLRSIHEYPKYQAEFPMSPVTSAHAGTYRCYGSLNSDPYLLSHPSEPLELVVSGPSMGSSPPPTGPISTPGPEDQPLTPTGSDPQSGLGRHLGV
notes: Immunoglobulin-like transcript 4 (ILT-4, LILRB2), human; APC-labelled with the Zenon labeling kit for flow cytometry; Probably the extracellular domain of ILT-4 (surmise); no catalogue number is printed; also called APC-ILT-4-Fc; hILT-4; source: bought: R&D Systems
What is called Kd is the concentration at which binding is half-saturated. B1: the Kd came out at 3.8 µM.
